Substitutions are numbered along the chain they refer to. Like-named read-outs stand apart in the source and are kept apart here.
B1: 37-H2L2 (antibody, V domains shown)
VH: EVQLVESGGGLVQPGGSLRLSCAASGFTFSDYWMNWVRQSPGKGLEWVAEIRLKSNNYATHYAESVKGRFTISRDNAKSSLYLQMNSLRAEDTAVYYCTRPLLWFRRYYAMDYWGQGTLVTVSS
VL: DIQMTQSPSSLSASVGDRVTITCSASQGISNYLNWYQQKPGKTVKLLIYYTSSLHSGVPSRFSGSGSGTDYTLTISSLQPEDFATYYCQQYSKLPFTFGQGTKLEIK
notes: humanized 37B9C4, VH v2 x VL v2
B2: 34-H2L2 (antibody, V domains shown)
VH: EVQLVESGGGLVKPGGSLRLSCAASGFTFSSYGMSWVRQTPGKGLEWVATISSGGSYTYYPDSVKGRFTISRDNAKNSLYLQMSSLRAEDTAVYYCARQGGDAMDYWGQGTLVTVSS
VL: DIQMTQSPSSLSASVGDRVTITCRASQSINNNLHWYQQKPGKAPKLLIYYASQSISGIPSRFSGSGSGTDFTLTISSVQPEDFATYFCQQSNSRLTFGGGTKVEIK
notes: humanized 34D3H1, VH v2 x VL v2
B3: 34-H3L3 (antibody, V domains shown)
VH: B2 VH with Q3H, G44R, Y80N
VL: B2 VL with M4L, A43S, V103L
notes: humanized 34D3H1, VH v3 x VL v3
B4: 34-H1L2 (antibody, V domains shown)
VH: B2 VH with T40A, A49S, S84N
VL: B2 VL
notes: humanized 34D3H1, VH v1 x VL v2
B5: 34-H1L4 (antibody, V domains shown)
VH: B2 VH with T40A, A49S, S84N
VL: B2 VL with Q3V, M4L, A13V, I21L, A43S, V103L
notes: humanized 34D3H1, VH v1 x VL v4
B6: 34-H1L3 (antibody, V domains shown)
VH: B2 VH with T40A, A49S, S84N
VL: B2 VL with M4L, A43S, V103L
notes: humanized 34D3H1, VH v1 x VL v3
B7: 34-H3L4 (antibody, V domains shown)
VH: B2 VH with Q3H, G44R, Y80N
VL: B2 VL with Q3V, M4L, A13V, I21L, A43S, V103L
notes: humanized 34D3H1, VH v3 x VL v4
B8: 34-H2L1 (antibody, V domains shown)
VH: B2 VH
VL: B2 VL with I58V, V78L, F87Y
notes: humanized 34D3H1, VH v2 x VL v1
B9: 34-H3L2 (antibody, V domains shown)
VH: B2 VH with Q3H, G44R, Y80N
VL: B2 VL
notes: humanized 34D3H1, VH v3 x VL v2
B10: 34-H2L4 (antibody, V domains shown)
VH: B2 VH
VL: B2 VL with Q3V, M4L, A13V, I21L, A43S, V103L
notes: humanized 34D3H1, VH v2 x VL v4
B11: 34-H2L3 (antibody, V domains shown)
VH: B2 VH
VL: B2 VL with M4L, A43S, V103L
notes: humanized 34D3H1, VH v2 x VL v3
B12: 34-H3L1 (antibody, V domains shown)
VH: B2 VH with Q3H, G44R, Y80N
VL: B2 VL with I58V, V78L, F87Y
notes: humanized 34D3H1, VH v3 x VL v1

Tests used:
[1] = target: T1, human G-protein-coupled receptor family C group 5 member D (GPRC5D) (human, UniProt Q9NZD1 1-345); assay: FACS, CHO-K1/GPRC5D
T1 construct: whole, on cells; also called human GPRC5D protein
T1 sequence (Q9NZD1 whole entry): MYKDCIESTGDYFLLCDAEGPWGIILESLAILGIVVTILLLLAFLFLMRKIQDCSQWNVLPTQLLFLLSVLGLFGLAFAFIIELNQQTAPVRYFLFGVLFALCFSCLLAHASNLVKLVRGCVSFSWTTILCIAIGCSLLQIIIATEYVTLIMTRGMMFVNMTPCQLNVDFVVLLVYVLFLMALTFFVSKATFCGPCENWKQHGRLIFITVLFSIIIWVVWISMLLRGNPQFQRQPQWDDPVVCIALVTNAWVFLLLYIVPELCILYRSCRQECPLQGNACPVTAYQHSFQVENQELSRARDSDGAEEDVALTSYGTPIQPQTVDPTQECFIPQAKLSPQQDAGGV

[2] = target: T1, human G-protein-coupled receptor family …; assay: FACS, CHO-K1/GPRC5D; remark: listed apart in the source

Row | Binder | Bottom [1] | LogEC50 [1] | Span [1] | Top [1] | Bottom [2] | LogEC50 [2] | Span [2] | Top [2]
1 | B1 | 9380 | 0.345 | 166000 | 175000 |  |  |  | 
2 | B2 |  |  |  |  | 8740 | 0.625 | 170000 | 179000
3 | B3 |  |  |  |  | 9120 | 0.651 | 184000 | 193000
4 | B4 |  |  |  |  | 13900 | 0.584 | 168000 | 182000
5 | B5 |  |  |  |  | 10300 | 0.6 | 179000 | 189000
6 | B6 |  |  |  |  | 10600 | 0.573 | 175000 | 186000
7 | B7 |  |  |  |  | 12800 | 0.598 | 180000 | 193000
8 | B8 |  |  |  |  | 7850 | 0.619 | 179000 | 187000
9 | B9 |  |  |  |  | 9040 | 0.646 | 171000 | 180000
10 | B10 |  |  |  |  | 4390 | 0.609 | 188000 | 192000
11 | B11 |  |  |  |  | 7060 | 0.583 | 179000 | 186000
12 | B12 |  |  |  |  | 11100 | 0.521 | 167000 | 178000

Source: patent publication US12281162 (LANOVA MEDICINES DEVELOPMENT, dated 2025)
